Data on two substances can be found in PMC6033852.

As a reminder, the stoichiometry N is the number of molecules, sites or subunits per partner or assembly.

For assay [1], the target named is C-terminal domains of the flavodiiron protein CD1623 from Clostridium difficile 630 (FDP_F_Cter), residues 401-843 (Clostridium difficile 630). Description: SEC; each protein loaded separately at room temperature on a 25 mL Superdex S-200 10/300 GL column; 20 mM Tris-HCl pH 7.5, 18% glycerol, 150 mM NaCl; calibrated with mass standards; data not shown.
For assay [2], the target named is Class F flavodiiron protein CD1623 from Clostridium difficile 630 (FDP_F) (Clostridium difficile 630). Described as above.

Substance “C-terminal domains of the flavodiiron protein CD1623 from Clostridium difficile 630 (FDP_F_Cter), residues 401-843 (domain or fragment)” displayed a stoichiometry N in assay [1] of 2.

Take “Class F flavodiiron protein CD1623 from Clostridium difficile 630 (FDP_F) (enzyme)”: the stoichiometry N in assay [2] was found to be 2.
